Data taken from patent US20230131598A1 (GlaxoSmithKline, published 2023).

Target: T1, human TIM-3 (T Cell Immunoglobulin and Mucin Domain-3) (human, UniProt Q8TDQ0 22-301)
T1 construct: The occupancy sentence names neither the receptor nor its form; also called HAVCR2
T1 sequence: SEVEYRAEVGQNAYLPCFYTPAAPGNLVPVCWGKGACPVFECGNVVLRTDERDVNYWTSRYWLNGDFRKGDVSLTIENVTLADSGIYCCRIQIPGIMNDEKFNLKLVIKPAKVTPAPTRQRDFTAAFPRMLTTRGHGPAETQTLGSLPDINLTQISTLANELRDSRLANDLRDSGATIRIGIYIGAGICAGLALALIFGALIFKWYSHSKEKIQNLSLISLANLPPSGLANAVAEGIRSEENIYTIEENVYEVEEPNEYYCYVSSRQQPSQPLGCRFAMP
Test: receptor occupancy in subjects of a corresponding Phase 1 study (method not described)

B1: cobolimab (antibody, human IgG4 S228P, kappa, V domains shown)
VH: EVQLLESGGGLVQPGGSLRLSCAAASGFTFSSYDMSWVRQAPGKGLDWVSTISGGGTYTYYQDSVKGRFTISRDNSKNTLYLQMNSLRAEDTAVYYCASMDYWGQGTTVTVSS
VL: DIQMTQSPSSLSASVGDRVTITCRASQSIRRYLNWYHQKPGKAPKLLIYGASTLQSGVPSRFSGSGSGTDFTLTISSLQPEDFAVYYCQQSHSAPLTFGGGTKVEIKR
notes: also called Anti-TIM3
Question: Does B1 bind?
Answer: binds
